Source: the supplement of paper PMC6755084

B1: minF1; the commonest letter at each place (parent)
chain: GAGACCGCAACTGAAAAGTTGTTATCAGAAATGGATGGGTTGAATTTCTGCACGTAGAAGCAAAAGGC

Variants of: B1
Experiment: fraction ligated after 30 min (ligated reads / total reads); higher = more ligase activity
Conditions: with F1*subA RNA substrate (template-directed ligation), 42 °C
In short: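 Ligated and unligated RNAs from a pool of minimized ligase ribozyme variants were separated on gels, reverse transcribed with barcoded primers and sequenced on a MiSeq. Core bases needed quality ≥30 to pass the filter. Each variant's fraction ligated was then taken as ligated reads over total reads.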

In order of rising fraction ligated:
1. A24C G42C  0.000786
2. A24G G34T  0.000849
3. A24T T32C  0.000877
4. A24G T32C  0.00122
5. A24T T32G  0.00134
6. A24G G34C  0.00145
7. A24C A35C  0.00154
8. A24T G37A  0.00164
9. A24T A35T  0.00183
10. A24G T32G  0.00185
11. A24T G42C  0.00191
12. A24C T32C  0.00194
13. A24C G34C  0.00204
14. A24C T32A  0.00211
15. A24G T25G  0.00212
16. T25C T32G  0.00219
17. T23C G34C  0.0023
18. A24T G42A  0.00238
19. A24T A35C  0.0024
20. A24C G42T  0.00251
21. A24T A35G  0.00268
22. A24C G42A  0.00275
23. A24T A44C  0.00276
24. T25A A43C  0.00284
25. A24G A43G  0.00288
26. A24C G34T  0.00294
27. T25C G37C  0.00302
28. A24T T36C  0.00304
29. A24T G42T  0.00308
30. A24T G34T  0.00322
31. A24G A43T  0.00328
32. T25C T32C  0.00341
33. A24G A43C  0.0035
34. A24C A35T  0.00376
35. T25A A43G  0.00383
36. A24T G34C  0.00388
37. A24T T32A  0.00395
38. T23C A43G  0.00398
39. A24T G37T  0.00399
40. A24C A35G  0.00404
41. A24C G33C  0.00418
42. T23C G34T  0.00428
43. T23C A43C  0.00429
44. A24T G37C  0.00436
45. A24G T32A  0.00439
46. A24G G34A  0.00498
47. T25C G37T  0.00523
48. T25C A35C  0.00531
49. A24G C26G  0.00544
50. A24C T32G  0.00553
51. A24G C26T  0.00563
52. A24T A44G  0.0057
53. T25C G37A  0.00575
54. A24T A29T  0.0058
55. A24T A29G  0.00599
56. A24T A31C  0.00611
57. A24T A31G  0.00616
58. A24G T25A  0.00617
59. T25A A43T  0.00628
60. A24T T25A  0.0063
61. T23C A43T  0.00662
62. A24T A31T  0.00682
63. T25A T36A  0.00698
64. T25A  0.00703
65. T25C A44C  0.00738
66. T25A G28C  0.00741
67. T23C T25G  0.0076
68. A24T A44T  0.00772
69. T25C T32A  0.00778
70. T25A T36C  0.00785
71. A24T A30T  0.00805
72. T23G G42C  0.00862
73. A24G A44C  0.00892
74. A24T T25G  0.00899
75. T25C A35T  0.009
76. T23C T36C  0.00904
77. A24T A30C  0.00942
78. A24G T25C  0.01
79. A24T A30G  0.0104
80. T25G A29C  0.0105
81. T25A T36G  0.0106
82. T25C A44G  0.0106
83. A24C T36C  0.0109
84. T25A G28A  0.011
85. A24T  0.011
86. A24T T36G  0.0114
87. A24T A29C  0.0116
88. T25C G33C  0.0119
89. T23C T36A  0.0123
90. A24C G33T  0.0129
91. T23C T25A  0.0129
92. T25A A27G  0.0139
93. A24C T25A  0.0142
94. T25C A44T  0.0143
95. T25A G28T  0.0157
96. A24G A44T  0.016
97. T25G  0.0165
98. T23C G34A  0.0166
99. A24G C26A  0.0171
100. A24G A44G  0.0186
101. A24C T25G  0.0197
102. A24T T36A  0.0205
103. T25G A27G  0.0208
104. A24C G33A  0.0216
105. A24C T25C  0.0235
106. A24C  0.025
107. T25C A29C  0.0251
108. T25C  0.0278
109. T23C T25C  0.0306
110. T25C G33T  0.0306
111. T25C A30G  0.0308
112. A24T T25C  0.0313
113. A24C G34A  0.0317
114. T23C T36G  0.0318
115. A24C C26G  0.032
116. T23G G42T  0.0401
117. T25C A29G  0.0416
118. A24G G28A  0.043
119. A24G A27G  0.0437
120. T25C A35G  0.0463
121. T25C A29T  0.0467
122. A24C C26A  0.0482
123. T25C G33A  0.0508
124. T23G C26G  0.0528
125. T25C A31C  0.0548
126. T25A A27T  0.0564
127. T25C A31G  0.057
128. T25C A31T  0.0613
129. A24G G28C  0.065
130. T25A A27C  0.0652
131. A24G A29C  0.0668
132. A24C T36A  0.0726
133. T23C G33T  0.0728
134. T25G A27C  0.0754
135. T25C A30T  0.0786
136. T25C A30C  0.081
137. T25G A27T  0.0947
138. A24G A29G  0.0952
139. A24C C26T  0.0975
140. A24G A29T  0.116
141. A24G  0.122
142. T23G C26A  0.123
143. T23C G33C  0.147
144. T25C G28A  0.15
145. T25C G28C  0.165
146. T23G G42A  0.204
147. T25C G28T  0.207
148. A24G A27T  0.231
149. A24G A27C  0.254
150. A24G G28T  0.254
151. T23C G33A  0.304
152. T23C A31G  0.392
153. T23G C26T  0.434
154. A24C T36G  0.438
155. T23C A31T  0.517
156. T23G A44C  0.693
157. T23G A44G  0.764
158. T23G A31C  0.783
159. T23G A30C  0.789
160. T23G A44T  0.792
161. T23G A30G  0.803
162. T23G A29T  0.803
163. T23G A30T  0.806
164. T23G A29G  0.813
165. T23G A31G  0.82
166. T23G A29C  0.824
167. T23G A31T  0.826
